This passage reports binding result and EC50 results from US20260193348A1 (ANTENGENE BIOLOGICS, published 2026).

The target of test [1] is T1, GPRC5D on multiple myeloma cells (human, UniProt Q9NZD1 1-345).
T1 construct: whole, on cells; Endogenous GPRC5D on multiple myeloma cell lines; also called G-protein coupled receptor family C group 5 member D; MM.1S, MOLP-8, L363, RPMI8226 cells
In words: FACS on MM.1S cells.

Test [2] addresses T2, CD3 on T cells / Jurkat cells (human, UniProt P07766 23-207; P04234 22-171; P09693 23-182).
T2 construct: whole, on cells; Native CD3 complex on CD3+ T cells isolated from normal donors or on Jurkat cells; also called human CD3; CD3+ T cells
The test can be described thus: FACS on CD3+ T cells isolated from normal donors.

For test [3], the target named is T2, CD3 on T cells / Jurkat cells. In words: FACS on Jurkat cells.
Test [4] deals with T1, GPRC5D on multiple myeloma cells. The test can be described thus: FACS on multiple myeloma cell lines.
In test [5] the target is T2, CD3 on T cells / Jurkat cells. The test can be described thus: FACS on Jurkat cells expressing CD3.
In test [6] the target is T3, CD19 on NALM6 cells, Raji cells and primary B cells (human, UniProt P15391 20-556).
T3 construct: whole, on cells; Endogenous CD19 on human cell lines / donor B cells; also called NALM6 cells expressing CD19; Raji cells expressing CD19
T3 sequence (looked up): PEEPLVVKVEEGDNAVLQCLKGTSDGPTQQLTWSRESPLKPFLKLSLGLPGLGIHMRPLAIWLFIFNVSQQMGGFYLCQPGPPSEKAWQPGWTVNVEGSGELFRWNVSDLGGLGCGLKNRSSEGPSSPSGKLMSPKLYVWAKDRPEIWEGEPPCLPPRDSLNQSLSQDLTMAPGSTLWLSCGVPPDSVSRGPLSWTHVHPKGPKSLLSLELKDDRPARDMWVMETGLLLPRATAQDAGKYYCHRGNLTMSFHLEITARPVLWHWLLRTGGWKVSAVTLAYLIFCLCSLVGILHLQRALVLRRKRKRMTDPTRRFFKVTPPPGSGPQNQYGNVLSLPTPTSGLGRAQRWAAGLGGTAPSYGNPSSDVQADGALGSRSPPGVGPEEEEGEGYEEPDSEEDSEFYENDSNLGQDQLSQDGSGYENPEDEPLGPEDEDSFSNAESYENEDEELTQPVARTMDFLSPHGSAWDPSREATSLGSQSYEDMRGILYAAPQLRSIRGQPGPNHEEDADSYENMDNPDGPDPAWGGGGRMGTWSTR
The test can be described thus: FACS on Raji cells expressing CD19 (FIG. 45C). How it is done: (§1) To evaluate the binding affinity of the generated bispecific antibodies to NALM6 cells, Raji cells, Primary B cells, DoHH2 cells, SU-DHL-1 cells and Jurkat cells, the NALM6 cells expressing CD19, Raji cells expressing CD19, Primary B cells, DoHH2 cells expressing CD20, SU-DHL-1 cells without expressing CD19 or CD20 and Jurkat cells expressing CD3 were stained by the test antibodies and the binding affinity was determined by FACS analysis. Primary B cells were isolated from healthy donors' PBMC by human B cell enrichment Kit (Stemcell #19054). The protocol of FACS analysis is described as follows: [0933] (a) The cells from each cell line above were harvested and centrifuged at 300 g for 5 min, and the supernatant were discarded. […] (b) The cells were washed 2 times with FACS buffer. [0935] (c) Step (a) was repeated. [0936] […] [0937] (e) Step (b) was repeated and the cells were resuspended with 100 μl/well diluted secondary antibody, and incubated at 4° C. for 45 minutes in the dark. [0938] (f) Step (b) was repeated and the cells were resuspended the cells with 150 μl/well FACS buffer and kept in dark for FACS analysis.

The target in test [7] is T3, CD19 on NALM6 cells, Raji cells and …. In words: FACS on primary B cells from healthy donors' PBMC (FIG. 45D). As to the method: as §1
Test [8] shares this target. In words: FACS on NALM6 cells expressing CD19, another experiment (FIG. 45B). How it is done:
as §1

A further test deals with T4, CD20 on DoHH2 cells (human, UniProt P11836 1-297).
T4 construct: whole, on cells; Endogenous CD20 on the human DoHH2 cell line; also called DoHH2 cells expressing CD20
T4 sequence (looked up): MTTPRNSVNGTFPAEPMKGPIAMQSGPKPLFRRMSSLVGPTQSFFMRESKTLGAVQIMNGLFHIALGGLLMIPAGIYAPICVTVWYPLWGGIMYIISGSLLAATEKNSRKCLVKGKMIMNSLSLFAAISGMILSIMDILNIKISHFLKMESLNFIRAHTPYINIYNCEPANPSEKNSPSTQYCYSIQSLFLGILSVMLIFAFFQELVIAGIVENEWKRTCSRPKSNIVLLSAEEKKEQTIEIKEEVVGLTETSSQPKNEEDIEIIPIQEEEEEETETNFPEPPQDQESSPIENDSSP
The test can be described thus: FACS on DoHH2 cells expressing CD20 (FIG. 45E).

The term EC50 denotes the concentration needed to bring the measured effect to its halfway point.

Positions count from the first letter of the chain named. Names may count otherwise.

T2 sequence (P07766 23-207, chain 1 of 3): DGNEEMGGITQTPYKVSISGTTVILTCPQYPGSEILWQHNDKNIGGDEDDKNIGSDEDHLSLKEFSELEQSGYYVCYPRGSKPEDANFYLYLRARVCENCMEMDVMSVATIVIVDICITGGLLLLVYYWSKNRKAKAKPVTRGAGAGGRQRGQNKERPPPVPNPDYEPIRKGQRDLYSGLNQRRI
T2 sequence (P04234 22-171, chain 2 of 3): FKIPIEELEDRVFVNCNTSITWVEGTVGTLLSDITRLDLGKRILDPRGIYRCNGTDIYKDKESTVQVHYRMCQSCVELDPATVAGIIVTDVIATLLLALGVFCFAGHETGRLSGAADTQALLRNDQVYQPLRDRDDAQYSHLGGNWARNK
T2 sequence (P09693 23-182, chain 3 of 3): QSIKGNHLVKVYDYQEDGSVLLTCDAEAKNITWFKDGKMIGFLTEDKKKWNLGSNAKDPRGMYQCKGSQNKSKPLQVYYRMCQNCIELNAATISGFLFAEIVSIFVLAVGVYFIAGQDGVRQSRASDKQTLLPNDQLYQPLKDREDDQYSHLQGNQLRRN
T1 sequence (Q9NZD1 whole entry): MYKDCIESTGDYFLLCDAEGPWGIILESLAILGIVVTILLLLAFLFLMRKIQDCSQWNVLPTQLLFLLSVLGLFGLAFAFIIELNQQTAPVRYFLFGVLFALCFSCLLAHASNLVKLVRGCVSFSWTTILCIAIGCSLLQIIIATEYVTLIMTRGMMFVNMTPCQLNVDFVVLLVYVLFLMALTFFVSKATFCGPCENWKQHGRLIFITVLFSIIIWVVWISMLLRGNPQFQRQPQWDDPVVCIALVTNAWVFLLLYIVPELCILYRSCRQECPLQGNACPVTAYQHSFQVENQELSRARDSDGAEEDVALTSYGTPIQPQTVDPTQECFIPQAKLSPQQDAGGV

B1: ATG-Bis-40E9 (bispecific antibody)
VH: EVQLQQSGPELVKPGASVKMSCKASGYTFTSYVIHWVKQKTGQGLEWIGYFNPYNDGTKYNEEFKGKATLTSDKSSNTAYMELNSLTSDDSAVYFCARGGVRRYFDVWGAGTTVTVSS
VL: DIQMTQSPSSLSASLGERVSLTCRASQDIGSNLNWLQQEPDGTIKRLIYATFGLDSGVPKRFSGSRSGSDYSLTISSLESEDFVDYYCQQYASFPYTFGGGTKLEIK
scFv: EVQLQLSGPELVKPGASVKMSCKASGYTFSSYVIHWVKQKPGQGLEWIGYINPYNDVIKYNEKFKGKATLTSDKSSSTAYMELSSLTSEDSAVYYCARDSYYSYDGFAYWGQGTLVTVSAGGGGSGGGGSGGGGSGGGGSQIVLTQSPAIMSASPGEKVTMTCSASSSVSYMHWYQQKSGTSPKRWIYDTSKLASGVPARFSGSGSGTSYSLTISSMEAEDAATYYCQQWSSNPPTFGGGTKVEIK
notes: L234A/L235A; also called chimeric 2+1 bispecific antibody; parental antibody
Take B1: the binding result in test [1] and in test [2] was “binds” throughout.

B2: Bis-GD2-Fab2-scFv (bispecific antibody)
VH: QVQLVESGPGVVQPGRSLRISCAVSGFSVTNYGVHWVRQPPGKGLEWLGVIWAGGITNYNSAFMSRLTISKDNSKNTVYLQMNSLRAEDTAMYYCASRGGHYGYALDYWGQGTLVTVSS
VL: EIVMTQTPATLSVSAGERVTITCKASQSVSNDVTWYQQKPGQAPRLLIYSASNRYSGVPARFSGSGYGTEFTFTISSVQSEDFAVYFCQQDYSSFGQGTKLEIK
scFv: B1 scFv
notes: Two anti-GD2 Fabs (humanized 3F8) and one anti-CD3 scFv (40-C12-C10-E9) joined by (GGGGS)2 linkers to CH1 of one Fab and to CH2; L234A/L235A; also called Fab-scFv-Fab GD2xCD3 bispecific antibody
In the case of B2, the binding result in test [2] is “binds”.

B3: Bis-40E9-L2H3-Y101F.H (bispecific antibody)
VH: EVQLVQSGAEVKKPGASVKVSCKASGYTFTSYVIHWVRQAPGQGLEWMGYFNPYNDGTKYNEEFKGRVTLTSDKSTSTAYMELRSLRSDDTAVYYCARGGVRRYFDVWGQGTTVTVSS
VL: DIQMTQSPSSLSASVGDRVTITCRASQDIGSNLNWLQQKPGKAIKRLIYATFGLDSGVPSRFSGSRSGTDFTLTISSLQPEDFATYYCQQYASFPYTFGGGTKVEIK
scFv: EVQLVQSGAEVKKPGSSVKVSCKASGYTFSSYVIHWVRQAPGQCLEWMGYINPYNDVIKYNEKFKGRVTLTSDKSTSTAYMELSSLRSEDTAVYYCARDSFYSYDGFAYWGQGTLVTVSSGGGGSGGGGSGGGGSGGGGSEIVLTQSPDFQSVTPKEKVTITCSASSSVSYMHWYQQKPDQSPKRLIYDTSKLASGVPSRFSGSGSGTDFTLTINSLEAEDAATYYCQQWSSNPPTFGCGTKVEIK
notes: L234A/L235A
As to B3, the binding result in test [3] and in [4] was “binds” each time.

B4: Bis-40E9-L2H3-Y54G.H (bispecific antibody)
VH: B3 VH
VL: B3 VL
scFv: B3 scFv with Y54G, F101Y
notes: L234A/L235A
Regarding B4, the binding result in test [3] and in [4] was “binds” each time.

B5: Bis-40E9-L2H3-D105R.H (bispecific antibody)
VH: B3 VH
VL: B3 VL
scFv: B3 scFv with F101Y, D105R
notes: L234A/L235A
Take B5: the binding result in test [3] and in [4] was “binds” in each case.

B6: ATG201-N55S-19B (bispecific antibody, human IgG1, kappa, L234A L235A)
heavy 1: not shown
heavy 2: QVQLQQSGAELVRPGSSVKISCKASGYAFSSYWMNWVKQRPGQGLEWIGQIWPGDGDTNYNGKFKGKATLTADESSSTAYMQLSSLASEDSAVYFCARRETTTVGRYYYAMDYWGQGTTVTVSSASTKGPSVFPLAPSSKSTSGGTAALGCLVKDYFPEPVTVSWNSGALTSGVHTFPAVLQSSGLYSLSSVVTVPSSSLGTQTYICNVNHKPSNTKVDKKVEPKSCGGGGSGGGGSEVQLVQSGAEVKKPGSSVKVSCKASGYTFSSYVIHWVRQAPGQCLEWMGYINPYSDVIKYNEKFKGRVTLTSDKSTSTAYMELSSLRSEDTAVYYCARDSYYSYDGFAYWGQGTLVTVSSGGGGSGGGGSGGGGSGGGGSEIVLTQSPDFQSVTPKEKVTITCSASSSVSYMHWYQQKPDQSPKRLIYDTSKLASGVPSRFSGSGSGTDFTLTINSLEAEDAATYYCQQWSSNPPTFGCGTKVEIKGGGGSGGGGSDKTHTCPPCPAPEAAGGPSVFLFPPKPKDTLMISRTPEVTCVVVDVSHEDPEVKFNWYVDGVEVHNAKTKPREEQYNSTYRVVSVLTVLHQDWLNGKEYKCKVSNKALPAPIEKTISKAKGQPREPQVCTLPPSREEMTKNQVSLSCAVKGFYPSDIAVEWESNGQPENNYKTTPPVLDSDGSFFLVSKLTVDKSRWQQGNVFSCSVMHEALHNHYTQKSLSLSPGK
light: not shown
notes: CD19xCD3 Fab-scFv-Fab: two C19B Fabs, anti-CD3 scFv 40E9-L2H3-N55S.H; L234A/L235A
As for B6, the binding result in [5] is given as “binds”. For the same molecule, the EC50 worked out at 1.11 nM in test [6], 0.442 nM in test [7] and 0.513 nM in test [8].

B7: ATG201-Y101F-19B (bispecific antibody, human IgG1, kappa, L234A L235A)
heavy 1: not shown
heavy 2: B6 heavy 2 with S292N, Y338F
light: not shown
notes: CD19xCD3 Fab-scFv-Fab: two C19B Fabs, anti-CD3 scFv 40E9-L2H3-Y101F.H; L234A/L235A
As for B7, the binding result in [5] is given as “binds”. Moreover, the concentration for a half-maximal effect (EC50) in test [6] was 1.11 nM; in [7], 0.359 nM; in test [8], 0.508 nM.

B8: ATG201-N55S-200 (bispecific antibody, human IgG1, kappa, L234A L235A)
heavy 1: not shown
heavy 2: EVQLVESGGGLVQPGRSLRLSCAASGFTFNDYAMHWVRQAPGKGLEWVSTISWNSGSIGYADSVKGRFTISRDNAKKSLYLQMNSLRAEDTALYYCAKDIQYGNYYYGMDVWGQGTTVTVSSASTKGPSVFPLAPSSKSTSGGTAALGCLVKDYFPEPVTVSWNSGALTSGVHTFPAVLQSSGLYSLSSVVTVPSSSLGTQTYICNVNHKPSNTKVDKKVEPKSCGGGGSGGGGSEVQLVQSGAEVKKPGSSVKVSCKASGYTFSSYVIHWVRQAPGQCLEWMGYINPYSDVIKYNEKFKGRVTLTSDKSTSTAYMELSSLRSEDTAVYYCARDSYYSYDGFAYWGQGTLVTVSSGGGGSGGGGSGGGGSGGGGSEIVLTQSPDFQSVTPKEKVTITCSASSSVSYMHWYQQKPDQSPKRLIYDTSKLASGVPSRFSGSGSGTDFTLTINSLEAEDAATYYCQQWSSNPPTFGCGTKVEIKGGGGSGGGGSDKTHTCPPCPAPEAAGGPSVFLFPPKPKDTLMISRTPEVTCVVVDVSHEDPEVKFNWYVDGVEVHNAKTKPREEQYNSTYRVVSVLTVLHQDWLNGKEYKCKVSNKALPAPIEKTISKAKGQPREPQVCTLPPSREEMTKNQVSLSCAVKGFYPSDIAVEWESNGQPENNYKTTPPVLDSDGSFFLVSKLTVDKSRWQQGNVFSCSVMHEALHNHYTQKSLSLSPGK
light: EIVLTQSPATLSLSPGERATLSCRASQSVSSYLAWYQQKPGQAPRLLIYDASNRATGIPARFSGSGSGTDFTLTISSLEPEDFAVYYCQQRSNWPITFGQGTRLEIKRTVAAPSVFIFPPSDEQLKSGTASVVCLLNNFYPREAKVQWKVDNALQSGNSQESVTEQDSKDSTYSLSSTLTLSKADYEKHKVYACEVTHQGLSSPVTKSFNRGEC
notes: L234A/L235A; also called ATG201-N55S-20O
Regarding B8, in [5], the binding result is “binds”. The molecule also gave a concentration giving a half-maximal response (EC50) in the test with CD20 on DoHH2 cells of 4.89 nM.

B9: Bis-GD2-Fab3 (bispecific antibody, V domains shown)
VH 1: B2 VH
VL 1: B2 VL
VH 2: EVQLQLSGPELVKPGASVKMSCKASGYTFSSYVIHWVKQKPGQGLEWIGYINPYNDVIKYNEKFKGKATLTSDKSSSTAYMELSSLTSEDSAVYYCARDSYYSYDGFAYWGQGTLVTVSA
VL 2: QIVLTQSPAIMSASPGEKVTMTCSASSSVSYMHWYQQKSGTSPKRWIYDTSKLASGVPARFSGSGSGTSYSLTISSMEAEDAATYYCQQWSSNPPTFGGGTKVEIK
notes: Fab3 format of WO2019154890A1: two anti-GD2 Fabs (humanized 3F8) and one anti-CD3 Fab (40-C12-C10-E9); also called Fab3 GD2xCD3 bispecific antibody
As to B9, the binding result in test [2] is reported as “binds”.
